T1: CFA/I fimbrial protein (with adhesin subunit CfaE) on ETEC strain H10407 (enterotoxigenic Escherichia coli (ETEC), UniProt P25734 1-360)
T1 sequence (looked up): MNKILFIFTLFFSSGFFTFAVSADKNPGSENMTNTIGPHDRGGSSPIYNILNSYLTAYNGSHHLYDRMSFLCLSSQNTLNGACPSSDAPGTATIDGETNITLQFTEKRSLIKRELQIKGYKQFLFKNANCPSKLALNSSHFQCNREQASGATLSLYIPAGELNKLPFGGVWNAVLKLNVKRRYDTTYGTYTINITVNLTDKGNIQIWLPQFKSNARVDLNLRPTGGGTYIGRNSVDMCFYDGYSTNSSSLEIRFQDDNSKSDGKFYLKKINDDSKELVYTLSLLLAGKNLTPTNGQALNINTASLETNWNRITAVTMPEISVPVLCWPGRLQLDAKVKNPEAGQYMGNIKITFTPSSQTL

T2: recombinant CS2 (N-terminal adhesin domain of CotD, MBP-tagged) (enterotoxigenic Escherichia coli (ETEC))
T2 construct: also called CotD, CS2; colonization factor antigen CS2
T2 chain: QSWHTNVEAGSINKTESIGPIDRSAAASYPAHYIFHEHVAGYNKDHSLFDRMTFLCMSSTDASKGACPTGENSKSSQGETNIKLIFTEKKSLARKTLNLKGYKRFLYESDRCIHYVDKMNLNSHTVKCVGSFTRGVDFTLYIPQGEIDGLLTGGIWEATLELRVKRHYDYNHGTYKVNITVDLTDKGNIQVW

T3: MBP-CfaE-N (recombinant N-terminal adhesin domain of CfaE fused to an MBP tag) (enterotoxigenic Escherichia coli (ETEC), UniProt P25734 24-205, Biotinylated for SPR; FITC or Alexa dye labelled for flow cytometry; sites not stated.)
T3 construct: Used plain (ELISA), biotinylated (SPR) and FITC/Alexa-labelled (flow cytometry); GenBank M55661 is printed for the nucleic acid; also called recombinant N-terminal truncated CfaE protein; N-terminal CfaE protein
T3 sequence: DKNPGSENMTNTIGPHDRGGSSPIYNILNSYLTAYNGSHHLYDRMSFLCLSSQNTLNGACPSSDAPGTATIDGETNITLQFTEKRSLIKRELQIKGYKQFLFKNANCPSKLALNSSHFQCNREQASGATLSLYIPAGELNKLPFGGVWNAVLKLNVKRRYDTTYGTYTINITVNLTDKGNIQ

B1: VHH antibody 2R215 (monomeric) (VHH)
VHH: QVQLQESGGGLVQAGGSLRLSCAASGNIFQDAEMGWYRQAPGKEREFVATIAYGGNTNYADSVKGRFTISRDNAKNTVYLQMNSLKPEDTAVYYCAVYTGVYYDRTTGGYVAFEYWGQGTQVTVSS
B2: VHH antibody 1D7 (monomeric) (VHH)
VHH: EVQLVESGGGLVQAGGSLTLSCAASERTFSYYVMAWFRQAPGKEREFVAGISMSGDSTKYADSVKGRFTISRDNAENTGYLQMNGLKPEDTAVYYCAADRDIRGNFRSWGRGTQVTVSS
notes: also called clone 1D7
B3: VHH antibody 2R23 (monomeric) (VHH)
VHH: QVQLQESGGGLVQAGGSLRLSCAASGYIFWSYGYMGWYRQAPGKERELVATISRGGTTNYADSVKGRFTISRDNAKNTVYLQMNSLKPEDTAVYYCAAGRYAFGYFKYWGQGTQVTVSS
notes: also called clone 2R23

Columns and labels:
CS4 on ETEC strain = CS4 on ETEC strain (enterotoxigenic Escherichia coli (ETEC)); assay: cell-based or functional assay
[1] = target: CS3 on ETEC strain #100483 (enterotoxigenic Escherichia coli (ETEC)); assay: cell-based or functional assay
CS17 on ETEC strain = CS17 on ETEC strain (enterotoxigenic Escherichia coli (ETEC)); assay: cell-based or functional assay
[2] = target: CS21 on ETEC strain #100171 (enterotoxigenic Escherichia coli (ETEC)); assay: cell-based or functional assay
[3] = target: CS1 on ETEC strain #200145 (enterotoxigenic Escherichia coli (ETEC)); assay: cell-based or functional assay
[4] = target: T1, CFA/I fimbrial protein (with adhesin …); assay: cell-based or functional assay
[5] = target: CS5 on ETEC strain #204348 (enterotoxigenic Escherichia coli (ETEC)); assay: cell-based or functional assay
[6] = target: CS19 on ETEC strain #204648 (enterotoxigenic Escherichia coli (ETEC)); assay: cell-based or functional assay
[7] = target: CS14 on ETEC strain #400599 (enterotoxigenic Escherichia coli (ETEC)); assay: cell-based or functional assay
[8] = target: CS2 on ETEC strain #201546 (enterotoxigenic Escherichia coli (ETEC)); assay: cell-based or functional assay
[9] = target: CS6 on ETEC strain #100001 (enterotoxigenic Escherichia coli (ETEC)); assay: cell-based or functional assay
[10] = target: T2, recombinant CS2 (N-terminal adhesin …); assay: ELISA on coated recombinant antigen
[11] = target: T3, MBP-CfaE-N (recombinant N-terminal …); assay: SPR (Biacore T200), CfaE on CM5 chip, VHH injected, 25 C, 1:1 model
Description: Surface plasmon resonance (SPR) technology was used to assess the binding properties of the VHH molecules (BIACORE® T200 instrument; GE Healthcare). Biotinylated CfaE protein was coupled to a CM5 sensor chip using standard amine coupling chemistry. Various concentrations of lead nanobodies ranging from 1 to 10 ug were injected over the chip surface at a flow rate of 30 l/min. An association step of 60 s was followed by a dissociation step of 180 s, and the final dissociation step was 600 s. Regeneration of the sensor chip surface was accomplished using 3 M MgCl₂. Experiments were performed at 25° C. Kinetic data were analyzed using BIACORE® T200 Evaluation (version 3.0) software and a 1:1 binding model. All chemicals for the BIACORE® experiment were purchased from GE Healthcare.

Row | Binder | MRHA IC100 (CS4 on ETEC strain) [µg/mL] | MRHA IC100 [1] [µg/mL] | MRHA IC100 (CS17 on ETEC strain) [µg/mL] | MRHA IC100 [2] [µg/mL] | MRHA IC100 [3] [µg/mL] | MRHA IC100 [4] [µg/mL] | MRHA IC100 [5] [µg/mL] | MRHA IC100 [6] [µg/mL] | MRHA IC100 [7] [µg/mL] | MRHA IC100 [8] [µg/mL] | MRHA IC100 [9] [µg/mL] | binding result [10] | Kd [11] [nM] | koff [11] [s⁻¹] | kon [11] [M⁻¹ s⁻¹]
1 | B1 | 100 | 100 | 6.25 | 25 | 200 | 25 | 6.25 | 200 | 200 | 6.25 | 25 | – | – | – | –
2 | B2 | 200 | 50 | 6.25 | 25 | 50 | 100 | 3.12 | 100 | 100 | 50 | 12.5 | no binding | 17.7 | 0.0311 | 1.75e+06
3 | B3 | 25 | 100 | 6.25 | 25 | 200 | 50 | 12.5 | 200 | 25 | 200 | 12.5 | – | 9.06 | 64.6 | 7.13e+09
